Data as given in patent EP1073891B1, “METHOD OF PREDICTING RECEPTOR MODULATING ACTIVITY” (Duke University, priority 1998, dated 1999).

Biological target: T1, ER (Homo sapiens, UniProt P03372)
T1 construct: expressed in transfected cells; host or cells: HepG2
T1 sequence (P03372 1-595): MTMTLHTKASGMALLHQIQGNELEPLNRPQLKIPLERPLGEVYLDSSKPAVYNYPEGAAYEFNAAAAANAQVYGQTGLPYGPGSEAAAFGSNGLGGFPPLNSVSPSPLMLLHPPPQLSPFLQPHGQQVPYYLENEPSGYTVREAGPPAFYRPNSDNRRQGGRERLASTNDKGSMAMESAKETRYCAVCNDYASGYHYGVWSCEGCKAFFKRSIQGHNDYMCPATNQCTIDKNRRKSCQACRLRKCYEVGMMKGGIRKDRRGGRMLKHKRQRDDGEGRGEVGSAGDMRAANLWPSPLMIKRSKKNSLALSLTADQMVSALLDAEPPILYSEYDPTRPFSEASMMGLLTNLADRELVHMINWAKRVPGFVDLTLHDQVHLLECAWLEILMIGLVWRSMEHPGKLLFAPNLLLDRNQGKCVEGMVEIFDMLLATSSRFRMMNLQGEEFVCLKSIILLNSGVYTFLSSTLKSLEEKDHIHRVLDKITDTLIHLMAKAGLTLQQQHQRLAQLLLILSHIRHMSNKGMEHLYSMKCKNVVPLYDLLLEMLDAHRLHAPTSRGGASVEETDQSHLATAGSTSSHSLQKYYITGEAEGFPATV
Assay: Disruption of tamoxifen activated ER transcription on several promoters (1x-ERE-Luc, 3X-ERE-Luc, TK-ERE-Luc, C3-Luc) (Example 4.5)
Assay type: cell-based
Settings: tamoxifen (10nM), TK-ERE-Luc and C3-Luc

## SSLTSRDFGSWYASR [α II]
  block of tamoxifen activated transcription on distinct promoters: blocks tamoxifen partial agonist activity from all promoters tested
